Measurements from publication PMC11235164.

Target: T1, trigger factor (Escherichia coli), P0A850
T1 chain: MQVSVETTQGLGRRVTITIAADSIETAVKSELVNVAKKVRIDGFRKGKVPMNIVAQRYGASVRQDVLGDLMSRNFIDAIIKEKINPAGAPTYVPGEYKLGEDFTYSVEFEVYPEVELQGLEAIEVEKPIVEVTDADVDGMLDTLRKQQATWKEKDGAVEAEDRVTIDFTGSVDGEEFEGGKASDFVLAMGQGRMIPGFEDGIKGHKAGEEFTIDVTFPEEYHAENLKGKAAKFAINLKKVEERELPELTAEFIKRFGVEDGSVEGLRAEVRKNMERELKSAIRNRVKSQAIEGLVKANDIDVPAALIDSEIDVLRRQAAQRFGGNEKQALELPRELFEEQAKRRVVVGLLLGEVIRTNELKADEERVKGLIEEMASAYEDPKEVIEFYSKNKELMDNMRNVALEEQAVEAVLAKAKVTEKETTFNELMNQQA
Assay: microfluidic diffusional sizing
Settings: remark: other sources report otherwise

B1: trigger factor, P0A850 (protein)
chain: T1 chain
B1 gave a Kd of 1500 nM.
